Source: paper PMC2909130 (Biochemistry, 2010)
Positions count from the first letter of the chain named. Names may count otherwise.

Biological target: the molecule itself
Assay: crystal structure

B1: ArsD109/C12A/C13A/C39S (domain or fragment, Escherichia coli (plasmid R773), UniProt P46003 1-109, looked up)
chain: MKTLMVFDPAMAASTGVCGTDVDQALVDFSTDVQWLKQSGVQIERFNLAQQPMSFVQNEKVKAFIEASGAEGLPLLLLDGETVMAGRYPKRAELARWFGIPLDKVGLAP
binding result: binds

B2: ArsD109 (ArsD arsenic metallochaperone of plasmid R773, residues 1-109, wild type) (domain or fragment, Escherichia coli (plasmid R773), UniProt P46003 1-109, looked up)
chain: B1 chain with A12C, A13C, S39C
binding result: binds
